Substrate in the data set: Nc1ncnc2c1ncn2[C@@H]1O[C@H](COP(=O)(O)NCCc2c[nH]c3ccccc23)[C@@H](O)[C@H]1O
Nature of the data set: Steady-state kinetics assay. The following applies: other: steady-state 25 °C, pH 7.2. The data set is classed as biochemical, human.

Where a chain is given by its changes, count along the chain named. Numbers in names are those of the source.

B1: hHINT2 WT (Homo sapiens) (protein)
chain: GNEVAKAQQATPGGAAPTIFSRILDKSLPADILYEDQQCLVFRDVAPQAPVHFLVIPKKPIPRISQAEEEDQQLLGHLLLVAKQTAKAEGLGDGYRLVINDGKLGAQSVYHLHIHVLGGRQLQWPPG
As for B1, for the setting “hHINT2 WT”, the Km (in general, the concentration of substrate that gives half-maximal velocity) stood at 0.91 ± 0.098 µM; the turnover number (kcat) (usually the number of substrate molecules converted per active site and unit of time at saturation) came to 5.77 ± 0.34 s⁻¹; the kcat/Km (in general, the turnover number divided by the Michaelis constant) was 6.3e+06 ± 1e+06 M⁻¹ s⁻¹.

B2: hHINT2 R99A (Homo sapiens; R99A) (protein)
chain: B1 chain with R63A
As for B2, for the setting “hHINT2 R99A”, the Km worked out at 0.683 ± 0.042 µM, the kcat is 2.65 ± 0.19 s⁻¹ and the kcat/Km was 3.88e+06 ± 810000 M⁻¹ s⁻¹.

B3: hHINT2 R99Q (Homo sapiens; R99Q) (protein)
chain: B1 chain with R63Q
With B3, for the setting “hHINT2 R99Q”, the Michaelis-Menten constant (Km) is 0.84 ± 0.155 µM, the kcat came to 6.01 ± 0.26 s⁻¹ and the catalytic efficiency (kcat/Km) was 7.2e+06 ± 1.1e+06 M⁻¹ s⁻¹.

B4: hHINT1 Q62A (Homo sapiens; Q62A) (protein)
chain: MADEIAKAQVARPGGDTIFGKIIRKEIPAKIIFEDDRCLAFHDISPQAPTHFLVIPKKHISAISVAEDDDESLLGHLMIVGKKCAADLGLNKGYRMVVNEGSDGGQSVYHVHLHVLGGRQMHWPPG
In the case of B4, for the setting “hHINT1 Q62A”, the Michaelis constant (Km) came out at 0.015 ± 0.003 µM, the turnover number (kcat) was found to be 0.45 ± 0.02 s⁻¹ and the kcat/Km amounted to 2.8e+07 ± 4e+06 M⁻¹ s⁻¹.

B5: hHINT1 Q62R (Homo sapiens; Q62R) (protein)
chain: B4 chain with A62R
Take B5: where the note is “hHINT1 Q62R”, the Km is 0.136 ± 0.03 µM, the turnover number (kcat) was 1.4 ± 0.09 s⁻¹ and the kcat/Km stood at 1.1e+07 ± 2.4e+06 M⁻¹ s⁻¹.

The record behind these values is article PMC9854251.
